Measurements reported in US6979530.

Molecular target: T1, Peptide conjugate 9 (DYE^2-Gly-Asp-Glu-Val-Asp-Gly-Ile-Lys-DYE^1)
T1 chain: GDEVDGIK

B1: purified caspase-3 (BD PharMingen) (protein)
chain: SGISLDNSYKMDYPEMGLCIIINNKNFHKSTGMTSRSGTDVDAANLRETFRNLKYEVRNKNDLTREEIVELMRDVSKEDHSKRSSFVCVLLSHGEEGIIFGTNGPVDLKKITNFFRGDRCRSLTGKPKLFIIQACRGTELDCGIETDSGVDDDMACHKIPVEADFLYAYSTAPGYYSWRNSKDGSWFIQSLCAMLKQYADKLEFMHILTRVNRKVATEFESFSFDATFHAKKQIPCIVSMLTKELYFYH
Question: How did the “fluorescence excitation and emission spectra before and after adding purified caspase-3 (in vitro cleavage)” value turn out when B1 was run?
Answer: The value was “When purified caspase-3 is added to 9, significant excitation fluorescence (FIG. 6) and significant emission fluorescence is detected (FIG. 7) from the donor dibenzorhodamine dye”.

Question: What about the “time course of donor dye fluorescence emission after mixing with caspase-3 (in vitro cleavage)” value of the same protein?
Answer: The value was “Emission from the donor dye increased rapidly during the first 5 to 10 minutes and stabilized in about an hour, indicating rapid cleavage”.
